Measured values taken from paper doi:10.1101/2020.05.18.103002 (bioRxiv, 2020).
Where no end group is shown, it is not given here.

B1: FITC-conjugated PAK1 peptide (DIQDKPPAPPMRNTST) (peptide)
peptide: DIQDKPPAPPMRNTST
modifications: also: FITC-conjugated, site not given here
B2: FITC-conjugated CD3ε peptide (RGQNKERPPPVPNPDY) (peptide)
peptide: RGQNKERPPPVPNPDY
modifications: also: FITC-conjugated, site not given here

Assays:
Test in all cases: fluorescence polarisation
[1] = biological target: FITC-conjugated CD3ε peptide (…)
[2] = biological target: FITC-conjugated PAK1 peptide (…)
[3] = biological target: NCK2 full length recombinant protein (WT, tag-free) (mouse, UniProt O55033 1-380)

Molecule	fold decrease of binding against WT NCK2 [1]	binding result [3]	further results
NCK2 2|3|1 full length recombinant protein (SH3-shuffled, tag-free) (from UniProt O55033)	2 fold	–	–
NCK2 3|1|2 full length recombinant protein (SH3-shuffled, tag-free) (from UniProt O55033)	–	–	fold decrease of binding against WT NCK2 [2]: 2 fold
NCK2 3|2|1 full length recombinant protein (SH3-shuffled, tag-free) (from UniProt O55033)	2 fold	–	–
B1	–	binds	–
B2	–	binds	–
